The record followed here is patent publication US20250361268A1, “NOVEL ANTI-INFLAMMATORY PEPTIDE AND USE THEREOF” (NOVACELL TECHNOLOGY INC., priority 2022, published 2025).

First the molecules themselves.
B1: peptide of SEQ ID NO 138 (peptide)
peptide: PKYKVM
HELM: PEPTIDE1{P.K.Y.K.V.[dM].[am]}$$$$V2.0; N-terminus assumed
SMILES: CSCC[C@@H](NC(=O)[C@@H](NC(=O)[C@H](CCCCN)NC(=O)[C@H](Cc1ccc(O)cc1)NC(=O)[C@H](CCCCN)NC(=O)[C@@H]1CCCN1)C(C)C)C(N)=O
B2: peptide of SEQ ID NO 135 (peptide)
peptide: IKYKVM
HELM: PEPTIDE1{[ac].I.K.Y.K.V.[dM].[am]}$$$$V2.0
SMILES: CC[C@H](C)[C@H](NC(C)=O)C(=O)N[C@@H](CCCCN)C(=O)N[C@@H](Cc1ccc(O)cc1)C(=O)N[C@@H](CCCCN)C(=O)N[C@H](C(=O)N[C@H](CCSC)C(N)=O)C(C)C
B3: peptide of SEQ ID NO 15 (peptide)
peptide: MRYKVM
HELM: PEPTIDE1{[CCCC(=O)[*:2]].M.R.Y.K.V.[dM].[am]}$$$$V2.0
SMILES: CCCC(=O)N[C@@H](CCSC)C(=O)N[C@@H](CCCNC(=N)N)C(=O)N[C@@H](Cc1ccc(O)cc1)C(=O)N[C@@H](CCCCN)C(=O)N[C@H](C(=O)N[C@H](CCSC)C(N)=O)C(C)C
B4: peptide of SEQ ID NO 142 (peptide)
peptide: IKYKPM
HELM: PEPTIDE1{I.K.Y.K.P.[dM].[am]}$$$$V2.0; N-terminus assumed
SMILES: CC[C@H](C)[C@H](N)C(=O)N[C@@H](CCCCN)C(=O)N[C@@H](Cc1ccc(O)cc1)C(=O)N[C@@H](CCCCN)C(=O)N1CCC[C@H]1C(=O)N[C@H](CCSC)C(N)=O
B5: peptide of SEQ ID NO 133 (peptide)
peptide: IKFKPM
HELM: PEPTIDE1{I.K.F.K.P.[dM].[am]}$$$$V2.0; N-terminus assumed
SMILES: CC[C@H](C)[C@H](N)C(=O)N[C@@H](CCCCN)C(=O)N[C@@H](Cc1ccccc1)C(=O)N[C@@H](CCCCN)C(=O)N1CCC[C@H]1C(=O)N[C@H](CCSC)C(N)=O
B6: peptide of SEQ ID NO 147 (peptide)
peptide: HKYKPM
HELM: PEPTIDE1{[ac].H.K.Y.K.P.[dM].[am]}$$$$V2.0
SMILES: CSCC[C@@H](NC(=O)[C@@H]1CCCN1C(=O)[C@H](CCCCN)NC(=O)[C@H](Cc1ccc(O)cc1)NC(=O)[C@H](CCCCN)NC(=O)[C@H](Cc1c[nH]cn1)NC(C)=O)C(N)=O
B7: peptide of SEQ ID NO 136 (peptide)
peptide: IKYKVM
HELM: PEPTIDE1{[CCCC(=O)[*:2]].I.K.Y.K.V.[dM].[am]}$$$$V2.0
SMILES: CCCC(=O)N[C@H](C(=O)N[C@@H](CCCCN)C(=O)N[C@@H](Cc1ccc(O)cc1)C(=O)N[C@@H](CCCCN)C(=O)N[C@H](C(=O)N[C@H](CCSC)C(N)=O)C(C)C)[C@@H](C)CC
B8: peptide of SEQ ID NO 154 (peptide)
peptide: RWRYLYM
HELM: PEPTIDE1{R.W.R.Y.L.Y.[dM].[am]}$$$$V2.0; N-terminus assumed
SMILES: CSCC[C@@H](NC(=O)[C@H](Cc1ccc(O)cc1)NC(=O)[C@H](CC(C)C)NC(=O)[C@H](Cc1ccc(O)cc1)NC(=O)[C@H](CCCNC(=N)N)NC(=O)[C@H](Cc1c[nH]c2ccccc12)NC(=O)[C@@H](N)CCCNC(=N)N)C(N)=O
B9: peptide of SEQ ID NO 141 (peptide)
peptide: PKYKVM
HELM: PEPTIDE1{[CCCCCCCC(=O)[*:2]].P.K.Y.K.V.[dM].[am]}$$$$V2.0
SMILES: CCCCCCCC(=O)N1CCC[C@H]1C(=O)N[C@@H](CCCCN)C(=O)N[C@@H](Cc1ccc(O)cc1)C(=O)N[C@@H](CCCCN)C(=O)N[C@H](C(=O)N[C@H](CCSC)C(N)=O)C(C)C
B10: peptide of SEQ ID NO 134 (peptide)
peptide: IKYKVM
HELM: PEPTIDE1{I.K.Y.K.V.[dM].[am]}$$$$V2.0; N-terminus assumed
SMILES: CC[C@H](C)[C@H](N)C(=O)N[C@@H](CCCCN)C(=O)N[C@@H](Cc1ccc(O)cc1)C(=O)N[C@@H](CCCCN)C(=O)N[C@H](C(=O)N[C@H](CCSC)C(N)=O)C(C)C
B11: peptide of SEQ ID NO 149 (peptide)
peptide: HKYKPM
HELM: PEPTIDE1{[CCCCCCCC(=O)[*:2]].H.K.Y.K.P.[dM].[am]}$$$$V2.0
SMILES: CCCCCCCC(=O)N[C@@H](Cc1c[nH]cn1)C(=O)N[C@@H](CCCCN)C(=O)N[C@@H](Cc1ccc(O)cc1)C(=O)N[C@@H](CCCCN)C(=O)N1CCC[C@H]1C(=O)N[C@H](CCSC)C(N)=O
B12: peptide of SEQ ID NO 140 (peptide)
peptide: PKYKVM
HELM: PEPTIDE1{[CCCC(=O)[*:2]].P.K.Y.K.V.[dM].[am]}$$$$V2.0
SMILES: CCCC(=O)N1CCC[C@H]1C(=O)N[C@@H](CCCCN)C(=O)N[C@@H](Cc1ccc(O)cc1)C(=O)N[C@@H](CCCCN)C(=O)N[C@H](C(=O)N[C@H](CCSC)C(N)=O)C(C)C
B13: peptide of SEQ ID NO 144 (peptide)
peptide: IKYKPM
HELM: PEPTIDE1{[CCCC(=O)[*:2]].I.K.Y.K.P.[dM].[am]}$$$$V2.0
SMILES: CCCC(=O)N[C@H](C(=O)N[C@@H](CCCCN)C(=O)N[C@@H](Cc1ccc(O)cc1)C(=O)N[C@@H](CCCCN)C(=O)N1CCC[C@H]1C(=O)N[C@H](CCSC)C(N)=O)[C@@H](C)CC
B14: peptide of SEQ ID NO 148 (peptide)
peptide: HKYKPM
HELM: PEPTIDE1{[CCCC(=O)[*:2]].H.K.Y.K.P.[dM].[am]}$$$$V2.0
SMILES: CCCC(=O)N[C@@H](Cc1c[nH]cn1)C(=O)N[C@@H](CCCCN)C(=O)N[C@@H](Cc1ccc(O)cc1)C(=O)N[C@@H](CCCCN)C(=O)N1CCC[C@H]1C(=O)N[C@H](CCSC)C(N)=O
B15: peptide of SEQ ID NO 125 (peptide)
peptide: RMRYYYM
HELM: PEPTIDE1{[ac].R.M.R.Y.Y.Y.[dM].[am]}$$$$V2.0
SMILES: CSCC[C@H](NC(=O)[C@H](CCCNC(=N)N)NC(C)=O)C(=O)N[C@@H](CCCNC(=N)N)C(=O)N[C@@H](Cc1ccc(O)cc1)C(=O)N[C@@H](Cc1ccc(O)cc1)C(=O)N[C@@H](Cc1ccc(O)cc1)C(=O)N[C@H](CCSC)C(N)=O
B16: peptide of SEQ ID NO 127 (peptide)
peptide: HMKYYYM
HELM: PEPTIDE1{[CCCC(=O)[*:2]].H.M.K.Y.Y.Y.[dM].[am]}$$$$V2.0
SMILES: CCCC(=O)N[C@@H](Cc1c[nH]cn1)C(=O)N[C@@H](CCSC)C(=O)N[C@@H](CCCCN)C(=O)N[C@@H](Cc1ccc(O)cc1)C(=O)N[C@@H](Cc1ccc(O)cc1)C(=O)N[C@@H](Cc1ccc(O)cc1)C(=O)N[C@H](CCSC)C(N)=O
B17: peptide of SEQ ID NO 143 (peptide)
peptide: IKYKPM
HELM: PEPTIDE1{[ac].I.K.Y.K.P.[dM].[am]}$$$$V2.0
SMILES: CC[C@H](C)[C@H](NC(C)=O)C(=O)N[C@@H](CCCCN)C(=O)N[C@@H](Cc1ccc(O)cc1)C(=O)N[C@@H](CCCCN)C(=O)N1CCC[C@H]1C(=O)N[C@H](CCSC)C(N)=O
B18: peptide of SEQ ID NO 146 (peptide)
peptide: HKYKPM
HELM: PEPTIDE1{H.K.Y.K.P.[dM].[am]}$$$$V2.0; N-terminus assumed
SMILES: CSCC[C@@H](NC(=O)[C@@H]1CCCN1C(=O)[C@H](CCCCN)NC(=O)[C@H](Cc1ccc(O)cc1)NC(=O)[C@H](CCCCN)NC(=O)[C@@H](N)Cc1c[nH]cn1)C(N)=O
B19: peptide of SEQ ID NO 139 (peptide)
peptide: PKYKVM
HELM: PEPTIDE1{[ac].P.K.Y.K.V.[dM].[am]}$$$$V2.0
SMILES: CSCC[C@@H](NC(=O)[C@@H](NC(=O)[C@H](CCCCN)NC(=O)[C@H](Cc1ccc(O)cc1)NC(=O)[C@H](CCCCN)NC(=O)[C@@H]1CCCN1C(C)=O)C(C)C)C(N)=O

Where only a bound is given, the exact number is not on record here.

The first assay deals with T1, formyl peptide receptor 2 (FPR2) (UniProt P25090 1-351, limits assumed).
T1 sequence (looked up): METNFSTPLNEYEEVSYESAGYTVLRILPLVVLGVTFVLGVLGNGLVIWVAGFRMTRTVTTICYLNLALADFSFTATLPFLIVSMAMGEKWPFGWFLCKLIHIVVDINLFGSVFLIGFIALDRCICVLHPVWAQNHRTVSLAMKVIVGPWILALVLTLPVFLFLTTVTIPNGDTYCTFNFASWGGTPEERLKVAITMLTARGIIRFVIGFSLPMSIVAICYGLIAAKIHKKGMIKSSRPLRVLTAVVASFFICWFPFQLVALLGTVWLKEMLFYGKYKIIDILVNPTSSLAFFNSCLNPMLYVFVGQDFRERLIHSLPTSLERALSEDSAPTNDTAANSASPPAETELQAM
The assay is described as follows: cell-based or functional assay.
For B1, the “EC50 for [Ca2+]” value is under 0.01 µM.

As to B2, the “EC50 for [Ca2+]” value is under 0.01 µM.

Turning to B3, the “EC50 for [Ca2+]” value was under 0.01 µM.

On to B4, for which the “EC50 for [Ca2+]” value is under 0.01 µM.

As to B5, the “EC50 for [Ca2+]” value is under 0.01 µM.

Turning to B6, the “EC50 for [Ca2+]” value is under 0.01 µM.

Turning to B7, the “EC50 for [Ca2+]” value was under 0.01 µM.

Consider B8, for which the “EC50 for [Ca2+]” value is under 0.01 µM.

B9: the “EC50 for [Ca2+]” value was under 0.01 µM.

Regarding B10, the “EC50 for [Ca2+]” value is under 0.01 µM.

Turning to B11, the “EC50 for [Ca2+]” value was under 0.01 µM.

As for B12, the “EC50 for [Ca2+]” value is under 0.01 µM.

Take B13: the “EC50 for [Ca2+]” value was under 0.01 µM.

As to B14, the “EC50 for [Ca2+]” value was under 0.01 µM.

B15: the “EC50 for [Ca2+]” value is under 0.01 µM.

For the molecule B16, the “EC50 for [Ca2+]” value was under 0.01 µM.

Consider B17, for which the “EC50 for [Ca2+]” value is under 0.01 µM.

B18: the “EC50 for [Ca2+]” value is under 0.01 µM.

Regarding B19, the “EC50 for [Ca2+]” value was under 0.01 µM.

A further assay addresses T2, FPR1 (UniProt P21462 1-350, limits assumed).
T2 sequence (looked up): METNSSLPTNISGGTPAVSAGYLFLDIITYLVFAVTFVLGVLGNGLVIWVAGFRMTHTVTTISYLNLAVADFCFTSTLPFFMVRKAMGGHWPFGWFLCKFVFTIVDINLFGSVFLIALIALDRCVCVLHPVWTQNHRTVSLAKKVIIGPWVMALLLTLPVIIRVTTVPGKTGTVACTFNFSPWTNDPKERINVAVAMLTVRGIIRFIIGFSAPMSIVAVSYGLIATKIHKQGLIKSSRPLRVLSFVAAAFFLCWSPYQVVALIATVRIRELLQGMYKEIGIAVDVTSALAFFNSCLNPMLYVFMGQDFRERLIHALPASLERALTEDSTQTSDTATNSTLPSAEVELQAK
The assay is described as follows: cell-based or functional assay.
Turning to B1, the “EC50 for [Ca2+]” value was over 10 µM.

B2: the “EC50 for [Ca2+]” value is over 10 µM.

In the case of B3, the “EC50 for [Ca2+]” value was over 10 µM.

On to B4, for which the “EC50 for [Ca2+]” value is over 10 µM.

Take B5: the “EC50 for [Ca2+]” value was over 10 µM.

For B6, the “EC50 for [Ca2+]” value was over 10 µM.

With B7, the “EC50 for [Ca2+]” value was over 10 µM.

Turning to B8, the “EC50 for [Ca2+]” value is over 10 µM.

With B9, the “EC50 for [Ca2+]” value was over 10 µM.

Regarding B10, the “EC50 for [Ca2+]” value was over 10 µM.

B11: the “EC50 for [Ca2+]” value is over 10 µM.

As to B12, the “EC50 for [Ca2+]” value is over 10 µM.

Turning to B13, the “EC50 for [Ca2+]” value was over 10 µM.

Take B14: the “EC50 for [Ca2+]” value is over 10 µM.

Take B15: the “EC50 for [Ca2+]” value is over 10 µM.

For the molecule B16, the “EC50 for [Ca2+]” value was over 10 µM.

With B17, the “EC50 for [Ca2+]” value is over 10 µM.

As to B18, the “EC50 for [Ca2+]” value is over 10 µM.

With B19, the “EC50 for [Ca2+]” value was over 10 µM.
